According to the Immune Epitope Database (IEDB):

Legend:
[1] = target: HLA-A*24:02; experiment: IEDB peptide-MHC binding, purified MHC/competitive/fluorescence; ≥ and ≤ were set here for values at or beyond the usual limits of such assays
[2] = target: HLA-B*15:01; experiment: as above
[3] = target: HLA-A*02:01; experiment: as above
[4] = target: HLA-B*07:02; experiment: as above
[5] = target: HLA-B*15:03; experiment: IEDB peptide-MHC binding, purified MHC/competitive/radioactivity; filed as Kd, often an IC50 or EC50 that approximates it; ≥ and ≤ were set here for values at or beyond the usual limits of such assays; conditions: source organism: Vaccinia virus WR
[6] = target: HLA-B*58:01; experiment: IEDB peptide-MHC binding, purified MHC/competitive/fluorescence; filed as Kd, often an IC50 or EC50 that approximates it; ≥ and ≤ were set here for values at or beyond the usual limits of such assays
[7] = target: HLA-A*11:01; experiment: IEDB peptide-MHC binding, purified MHC/direct/fluorescence; filed as Kd, often an IC50 or EC50 that approximates it; ≥ and ≤ were set here for values at or beyond the usual limits of such assays
[8] = target: HLA-A*31:01; experiment: IEDB peptide-MHC binding, purified MHC/competitive/fluorescence; filed as Kd, often an IC50 or EC50 that approximates it; ≥ and ≤ were set here for values at or beyond the usual limits of such assays
[9] = target: HLA-C*14:02; experiment: IEDB peptide-MHC binding, purified MHC/direct/fluorescence; filed as Kd, often an IC50 or EC50 that approximates it; ≥ and ≤ were set here for values at or beyond the usual limits of such assays; conditions: source organism: Burkholderia vietnamiensis G4
[10] = target: HLA-B*40:01; experiment: as above
[11] = target: HLA-B*18:01; experiment: as above; conditions: source organism: Bordetella avium
[12] = target: HLA-C*06:02; experiment: as above
[13] = target: HLA-C*15:02; experiment: as above; conditions: source organism: Burkholderia vietnamiensis G4
[14] = target: HLA-B*15:42; experiment: IEDB peptide-MHC binding, purified MHC/competitive/fluorescence; filed as Kd, often an IC50 or EC50 that approximates it; ≥ and ≤ were set here for values at or beyond the usual limits of such assays
[15] = target: HLA-B*83:01; experiment: as above
[16] = target: HLA-B*46:01; experiment: as above; conditions: source organism: Burkholderia vietnamiensis G4
[17] = target: HLA-B*45:06; experiment: as above
[18] = target: HLA-A*03:01; experiment: IEDB peptide-MHC binding, purified MHC/direct/fluorescence; filed as Kd, often an IC50 or EC50 that approximates it; ≥ and ≤ were set here for values at or beyond the usual limits of such assays
[19] = target: HLA-C*07:02; experiment: as above; conditions: source organism: Escherichia coli O157:H7 str. EDL933
[20] = target: HLA-B*27:05; experiment: as above; conditions: source organism: Escherichia coli O157:H7
[21] = target: HLA-A*26:01; experiment: as above; conditions: source organism: Escherichia coli O157:H7
[22] = target: HLA-A*31:01; experiment: as above; conditions: source organism: Escherichia coli O157:H7
[23] = target: HLA-B*15:01; experiment: as above; conditions: source organism: Escherichia coli O157:H7
[24] = target: HLA-A*02:01; experiment: as above; conditions: source organism: Escherichia coli O157:H7
[25] = target: HLA-B*07:02; experiment: as above; conditions: source organism: Escherichia coli O157:H7
[26] = target: HLA-A*01:01; experiment: as above; conditions: source organism: Escherichia coli O157:H7
[27] = target: HLA-B*58:01; experiment: as above; conditions: source organism: Escherichia coli O157:H7
[28] = target: HLA-A*69:01; experiment: as above; conditions: source organism: Escherichia coli O157:H7
[29] = target: HLA-B*08:01; experiment: as above; conditions: source organism: Escherichia coli O157:H7
[30] = target: HLA-B*44:02; experiment: as above; conditions: source organism: Escherichia coli O157:H7
[31] = target: HLA-B*15:01; experiment: IEDB peptide-MHC binding, purified MHC/competitive/fluorescence; filed as Kd, often an IC50 or EC50 that approximates it; ≥ and ≤ were set here for values at or beyond the usual limits of such assays; conditions: source organism: Shigella boydii CDC 3083-94
[32] = target: HLA-A*01:01; experiment: as above; conditions: source organism: Shigella boydii CDC 3083-94
[33] = target: HLA-B*51:01; experiment: IEDB peptide-MHC binding, purified MHC/direct/fluorescence; filed as Kd, often an IC50 or EC50 that approximates it; ≥ and ≤ were set here for values at or beyond the usual limits of such assays; conditions: source organism: Helicobacter pylori
[34] = target: HLA-C*04:01; experiment: IEDB peptide-MHC binding, purified MHC/competitive/fluorescence; filed as Kd, often an IC50 or EC50 that approximates it; ≥ and ≤ were set here for values at or beyond the usual limits of such assays; conditions: source organism: Helicobacter pylori 26695
[35] = target: HLA-A*03:01; experiment: as above; conditions: source organism: Escherichia coli 101-1
[36] = source organism: Sudan ebolavirus
[37] = source organism: Vaccinia virus
[38] = source organism: dengue virus type 4
[39] = source organism: Burkholderia vietnamiensis G4
[40] = source organism: Burkholderia mallei
[41] = source organism: Escherichia coli O157:H7
[42] = source organism: Zaire ebolavirus
[43] = source organism: Helicobacter pylori 26695
[44] = source organism: Rickettsia typhi
[45] = source organism: Rickettsia typhi str. Wilmington

FQKAFSMPL
IC50 [1, 36]: 27.5 µM | IC50 [2, 36]: 2.11 µM | IC50 [3, 36]: 784 nM | IC50 [4, 36]: 16 µM

FANPLSNPF
IC50 [1, 37]: 2.78 µM | IC50 [2, 37]: 5.74 µM | IC50 [3, 37]: 2530 nM | IC50 [4, 37]: 69.1 µM | Kd [5]: 1.92 nM

LKASGRYQW
Kd ([6]; source organism: Escherichia coli O139:H28 str. E24377A): 879 nM

VVTLIPLCR
Kd [7, 38]: 454 nM | Kd [8, 38]: 30.1 nM

KGIHPQNHL
Kd ([6]; source organism: Escherichia coli): ≥ 20000 nM

WMRWGGWPF
Kd [9]: 4.72 µM | Kd ([10]; source organism: Bordetella avium): 512 nM | Kd [11]: 4.66 µM | Kd [12, 39]: ≥ 20000 nM | Kd [13]: ≥ 20 µM | Kd [14, 39]: ≥ 5 µM | Kd [15, 39]: ≥ 5 µM | Kd [16]: 418 nM | Kd [17, 39]: ≥ 5 µM

LTQRRTTPR
Kd [18, 40]: 1860 nM | Kd [7, 40]: 52.6 nM | Kd ([8]; source organism: Burkholderia mallei FMH): 13.1 nM

RRNDVARIF
Kd [19]: 41 nM | Kd [20]: 120 nM | Kd [21]: ≥ 20 µM | Kd [22]: ≥ 20 µM | Kd [23]: ≥ 20 µM | Kd [24]: ≥ 20 µM | Kd [10, 41]: ≥ 20000 nM | Kd [25]: ≥ 20 µM | Kd [26]: ≥ 20 µM | Kd [27]: ≥ 20 µM | Kd [28]: ≥ 20 µM | Kd ([12]; source organism: Escherichia coli O157:H7 str. EDL933): 22 nM | Kd [29]: 1900 nM | Kd [18, 41]: ≥ 20000 nM | Kd [7, 41]: ≥ 20000 nM | Kd [30]: ≥ 20 µM

HSETVIHRY
Kd [31]: 3000 nM | Kd [32]: 14.4 nM | Kd ([6]; source organism: Shigella boydii CDC 3083-94): ≥ 20000 nM

ARLLNLSGV
IC50 [1, 42]: 32.8 µM | IC50 [3, 42]: 9980 nM | IC50 [4, 42]: ≥ 152 µM

RSSKLVMRY
Kd ([6]; source organism: Yersinia pestis Nepal516): 18.3 nM

FPIQDFPII
Kd [33]: 156 nM | Kd [14, 43]: ≥ 5 µM | Kd [15, 43]: 2.74 µM | Kd [34]: ≥ 5 µM | Kd [17, 43]: ≥ 5 µM

RRVRRRVLV
Kd ([12]; source organism: human gammaherpesvirus 4): 316 nM

RPVVLTGGT
IC50 ([1]; source organism: Variola virus): 0.104 µM | IC50 ([3]; source organism: Variola virus): ≥ 89900 nM | IC50 ([4]; source organism: Variola virus): 24.1 µM

GTKAWVMNR
Kd ([8]; source organism: Escherichia coli 101-1): 3.3 nM | Kd [35]: 4.5 µM

LLQRWGGTC
IC50 [2, 42]: 41.3 µM | IC50 [3, 42]: 2490 nM | IC50 [4, 42]: ≥ 473 µM

LTIPTIMGR
Kd [18, 44]: 930 nM | Kd [7, 44]: 3 nM | Kd [8, 45]: 2.55 nM | Kd [14, 45]: ≥ 5 µM | Kd [15, 45]: ≥ 5 µM | Kd [17, 45]: ≥ 5 µM
